The assay addresses SARS-CoV-2-S2 ECD-his (Acro, S2N-C52H5) (SARS-CoV-2, UniProt P0DTC2 686-1213). Kind of assay: ELISA. On the technique in general: An ELISA detects its analyte on a solid surface through an enzyme-linked reagent.

B1: 抗体CT150 (antibody, V domains shown)
VH: QEQLVESGGGVVQPGRSLRLSCAASGFTFSSYAMHWVRQAPGEGLEWVALISYDGDNKYYADSVKGRFTISRDNSKTTLFLQMNSLRAEDTAVYYCARDRGSYFYGVDVWGQGATVTVSS
VL: DIQLTQSPSFLSASVGDRVTITCRASQDINSYLAWYQQKPGKAPKLLIYAASTLQSGVPSRFSGSGSGTEFTLTISSLQPEDFATYYCQQLNSYPIFTFGPGTKVDIK
The term EC50 denotes the concentration needed to bring the measured effect to its halfway point. A lower EC50 goes with an effect from little substance. In the case of B1, the response was half-maximal at 8.18 ng/mL (EC50).

The values are drawn from patent CN114437205A (DOMA MEDICINE TECH SUZHOU LIMITED COMPANY, dated 2022).
